This note sets out measurements from PMC5922973, “Topoisomerase VI senses and exploits both DNA crossings and bends to facilitate strand passage” (eLife, 2018).

Data set [1] deals with the molecule itself. The experiment in a line: SEC; topo VI co-expressed in E. coli and co-purified through His6-Top6B (Ni2+, SP/Q, TEV, Ni2+), then Sephacryl-300 HR gel filtration in 20 mM HEPES-KOH pH 7.5, 300 mM KCl, 10% glycerol; heterotetramer peak. (In gel filtration, larger molecules generally elute earlier.)
Data set [2] concerns the molecule itself. The experiment in a line: FRET or BRET; bulk FRET between Alexa555 and Alexa647 on Cys180 of the ATP gate; 200 nM topo II, 0 or 100 uM bp supercoiled DNA, 100 mM KCl, 10 mM Tris-HCl pH 7.9, 5 mM MgCl2, 0 or 1 mM AMPPNP. (In BRET a luciferase serves as donor, and the signal depends on an acceptor being close.)

B1: Methanosarcina mazei topoisomerase VI subunit A (Top6A) (enzyme)
chain: MEGEKGSKTRKGDALAREKLLEIAEKIYNQFEEEVVPSVSLPSRTKANLEYSDESDVWVYGDRESERSAKTVKGAFQLLKTTYATDFLINEHLARNRGSTLRELYYISEGWDYAKFKEQGESDRLIEDLEILTSLQREYFHMRPEEDGATMFGPIEITEQTKRGERNIHCQKDVGEGGYQIPFNVENIEFQKHDASMIIAIETGGMYARLMENGFDEAYNAILVHLKGQPARSTRRIIKRMNEELGIPVAVFTDGDPWSYRIYASVAYGAIKSAHLSEFMATPAAKFLGLQPSDIVEYELSTDKLTEQDVSALRSELSDPRFESDYWKEQIQLQLDIGKKAEQQAFAGKGLDFVTEVYLPNRLKEMGMI
notes: Top6A of Methanosarcina mazei topo VI; the Top6A gene cloned into a polycistronic expression vector (Corbett et al., 2007); Two Top6A and two Top6B form the A2B2 heterotetramer; also called MmTop6A; A subunit of topo VI
Consider B1, for which the binding result in data set [1] is reported as “binds”.

B2: S. cerevisiae topoisomerase II 1-1177 cyslite-180C, Alexa555/Alexa647-labeled (enzyme, Saccharomyces cerevisiae, UniProt P06786 1-1177, looked up)
chain: MSTEPVSASDKYQKISQLEHILKRPDTYIGSVETQEQLQWIYDEETDAMIEKNVTIVPGLFKIFDEILVNAADNKVRDPSMKRIDVNIHAEEHTIEVKNDGKGIPIEIHNKENIYIPEMIFGHLLTSSNYDDDEKKVTGGRNGYGAKLCNIFSTEFILETADLNVGQKYVQKWENNMSICHPPKITSYKKGPSYTKVTFKPDLTRFGMKELDNDILGVMRRRVYDINGSVRDINVYLNGKSLKIRNFKNYVELYLKSLEKKRQLDNGEDGAAKSDIPTILYERINNRWEVAFAVSDISFQQISFVNSIATTMGGTHVNYITDQIVKKISEILKKKKKKSVKSFQIKNNMFIFINCLIENPAFTSQTKEQLTTRVKDFGSRAEIPLEYINKIMKTDLATRMFEIADANEENALKKSDGTRKSRITNYPKLEDANKAGTKEGYKCTLVLTEGDSALSLAVAGLAVVGRDYYGAYPLRGKMLNVREASADQILKNAEIQAIKKIMGLQHRKKYEDTKSLRYGHLMIMTDQDHDGSHIKGLIINFLESSFPGLLDIQGFLLEFITPIIKVSITKPTKNTIAFYNMPDYEKWREEESHKFTWKQKYYKGLGTSLAQEVREYFSNLDRHLKIFHSLQGNDKDYIDLAFSKKKADDRKEWLRQYEPGTVLDPTLKEIPISDFINKELILFSLADNIRSIPNVLDGFKPGQRKVLYGCFKKNLKSELKVAQLAPYVSEATAYHHGEQSLAQTIIGLAQNFVGSNNIYLLLPNGAFGTRATGGKDAAAARYIYTELNKLTRKIFHPADDPLYKYIQEDEKTVEPEWYLPILPMILVNGAEGIGTGWSTYIPPFNPLEIIKNIRHLMNDEELEQMHPWFRGWTGTIEEIEPLRYRMYGRIEQIGDNVLEITELPARTWTSTIKEYLLLGLSGNDKIKPWIKDMEEQHDDNIKFIITLSPEEMAKTRKIGFYERFKLISPISLMNMVAFDPHGKIKKYNSVNEILSEFYYVRLEYYQKRKDHMSERLQWEVEKYSFQVKFIKMIIEKELTVTNKPRNAIIQELENLGFPRFNKEGKPYYGSPNDEIAEQINDVKGATSDEEDEESSHEDTENVINGPEELYGTYEYLLGMRIWSLTKERYQKLLKQKQEKETELENLLKLSAKDIWNTDLKAFEVGYQEFLQRDAEAR
modifications: Alexa Fluor 555 C2 maleimide or Alexa Fluor 647 C2 maleimide on the native cysteine 180
notes: Saccharomyces cerevisiae topoisomerase II, C-terminal truncation coding for residues 1-1177 (Schmidt et al., 2012), with four cysteines changed to alanine; also called ScTop2^ΔCTR-cyslite-180C; topo II; not shown: His6, N-terminal, cleaved
Take B2: the binding result in data set [2] is “binds”.
